Reference: the supplement of paper PMC10065799, “High-throughput profiling of sequence recognition by tyrosine kinases and SH2 domains using bacterial peptide display” (eLife, 2023)

Assays:
Jak2 = Jak2 (UniProt O60674); assay: phosphorylation enrichment, bacterial display (enrichment ratio); higher = better substrate or ligand; peptides without Tyr show the background
Fer (mouse) = assay: as above
EPHB2 = EPHB2 (UniProt P29323); assay: as above
FGFR1 = FGFR1 (UniProt P11362); assay: as above
EPHB1 = EPHB1 (UniProt P54762); assay: as above
Fes = Fes (UniProt P07332); assay: as above
c-Src = assay: as above
Fyn = Fyn (UniProt P06241); assay: as above
FGFR3 = FGFR3 (UniProt P22607); assay: as above
c-Abl (mouse) = assay: as above
Hck = Hck (UniProt P08631); assay: as above
MERTK = MERTK (UniProt Q12866); assay: as above
AncSZ = assay: as above
SHP2-C SH2 = assay: SH2 binding enrichment of the phosphorylated peptide, bacterial display (enrichment ratio); higher = better substrate or ligand; peptides without Tyr show the background
Grb2 SH2 = Grb2 SH2 (UniProt P62993); assay: as above
c-Src SH2 = assay: as above
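Wherever SH2 binding enrichment of the phosphorylated peptide, bacterial display is given: peptide library displayed on the E. coli surface as eCPX fusions, selected cells deep-sequenced, score is each peptide's frequency after selection divided by its frequency in the input.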
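Wherever phosphorylation enrichment, bacterial display is given: 11-residue human phosphosite peptides and single-mutation variants displayed on the E. coli surface, counted by deep sequencing, each peptide's frequency after selection divided by its frequency in the unselected input library; frequency after pTyr selection over input frequency; kinase dosed for 20-30% of maximal phosphorylation in three min.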

Jak2, sequence (O60674 whole entry, looked up): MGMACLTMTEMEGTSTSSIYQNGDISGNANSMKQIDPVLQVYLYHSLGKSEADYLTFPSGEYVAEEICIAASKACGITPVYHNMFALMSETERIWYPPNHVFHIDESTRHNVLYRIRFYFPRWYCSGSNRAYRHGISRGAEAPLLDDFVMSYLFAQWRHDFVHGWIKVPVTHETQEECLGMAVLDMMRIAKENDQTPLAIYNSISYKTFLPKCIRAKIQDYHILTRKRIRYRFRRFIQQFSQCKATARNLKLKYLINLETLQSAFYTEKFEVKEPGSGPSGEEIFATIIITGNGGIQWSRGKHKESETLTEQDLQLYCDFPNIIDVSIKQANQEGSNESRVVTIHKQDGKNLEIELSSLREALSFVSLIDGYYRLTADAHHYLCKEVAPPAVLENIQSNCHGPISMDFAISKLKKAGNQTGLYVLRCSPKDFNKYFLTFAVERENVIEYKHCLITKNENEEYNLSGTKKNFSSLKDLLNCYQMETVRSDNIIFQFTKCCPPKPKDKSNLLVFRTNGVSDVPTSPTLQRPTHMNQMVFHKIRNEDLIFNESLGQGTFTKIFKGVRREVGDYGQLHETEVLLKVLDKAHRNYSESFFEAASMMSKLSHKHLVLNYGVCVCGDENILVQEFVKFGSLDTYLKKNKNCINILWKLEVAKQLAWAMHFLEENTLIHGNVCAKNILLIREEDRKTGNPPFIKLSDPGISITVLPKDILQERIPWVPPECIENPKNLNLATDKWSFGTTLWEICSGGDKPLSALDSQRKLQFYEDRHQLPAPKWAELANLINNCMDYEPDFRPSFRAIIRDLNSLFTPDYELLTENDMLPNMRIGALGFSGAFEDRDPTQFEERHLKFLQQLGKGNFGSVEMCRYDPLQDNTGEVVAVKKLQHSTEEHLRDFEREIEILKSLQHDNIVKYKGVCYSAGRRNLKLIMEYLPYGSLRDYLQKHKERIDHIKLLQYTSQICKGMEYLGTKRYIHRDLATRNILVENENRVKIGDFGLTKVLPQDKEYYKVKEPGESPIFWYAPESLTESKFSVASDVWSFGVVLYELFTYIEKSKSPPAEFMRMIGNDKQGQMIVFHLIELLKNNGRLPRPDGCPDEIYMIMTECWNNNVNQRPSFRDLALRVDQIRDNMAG
EPHB1, sequence (P54762 whole entry, looked up): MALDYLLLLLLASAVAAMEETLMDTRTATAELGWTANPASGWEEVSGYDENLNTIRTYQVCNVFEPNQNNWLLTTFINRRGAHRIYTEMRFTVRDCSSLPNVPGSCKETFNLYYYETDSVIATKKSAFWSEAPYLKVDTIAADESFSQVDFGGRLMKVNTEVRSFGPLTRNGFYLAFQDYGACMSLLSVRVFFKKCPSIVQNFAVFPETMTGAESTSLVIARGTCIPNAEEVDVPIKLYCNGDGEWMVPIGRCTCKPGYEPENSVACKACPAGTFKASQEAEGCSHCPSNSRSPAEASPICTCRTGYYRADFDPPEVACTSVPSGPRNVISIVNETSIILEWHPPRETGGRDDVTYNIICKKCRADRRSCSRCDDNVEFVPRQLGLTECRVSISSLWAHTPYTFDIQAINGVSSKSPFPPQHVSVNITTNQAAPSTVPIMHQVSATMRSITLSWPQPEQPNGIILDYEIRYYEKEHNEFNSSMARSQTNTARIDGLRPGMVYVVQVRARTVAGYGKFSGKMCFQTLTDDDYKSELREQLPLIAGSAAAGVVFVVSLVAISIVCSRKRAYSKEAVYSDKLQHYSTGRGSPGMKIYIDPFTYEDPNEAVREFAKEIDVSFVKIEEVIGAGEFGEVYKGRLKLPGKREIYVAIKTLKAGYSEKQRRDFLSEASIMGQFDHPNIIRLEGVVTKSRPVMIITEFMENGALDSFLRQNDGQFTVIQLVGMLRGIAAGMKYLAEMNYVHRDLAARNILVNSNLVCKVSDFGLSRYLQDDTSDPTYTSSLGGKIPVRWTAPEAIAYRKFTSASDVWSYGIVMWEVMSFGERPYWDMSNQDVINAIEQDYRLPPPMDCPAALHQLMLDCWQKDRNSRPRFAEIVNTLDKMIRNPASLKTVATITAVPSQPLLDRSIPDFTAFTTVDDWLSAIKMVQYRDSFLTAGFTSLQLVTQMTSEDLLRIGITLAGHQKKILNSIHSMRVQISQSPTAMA
Hck, sequence (P08631 whole entry, looked up): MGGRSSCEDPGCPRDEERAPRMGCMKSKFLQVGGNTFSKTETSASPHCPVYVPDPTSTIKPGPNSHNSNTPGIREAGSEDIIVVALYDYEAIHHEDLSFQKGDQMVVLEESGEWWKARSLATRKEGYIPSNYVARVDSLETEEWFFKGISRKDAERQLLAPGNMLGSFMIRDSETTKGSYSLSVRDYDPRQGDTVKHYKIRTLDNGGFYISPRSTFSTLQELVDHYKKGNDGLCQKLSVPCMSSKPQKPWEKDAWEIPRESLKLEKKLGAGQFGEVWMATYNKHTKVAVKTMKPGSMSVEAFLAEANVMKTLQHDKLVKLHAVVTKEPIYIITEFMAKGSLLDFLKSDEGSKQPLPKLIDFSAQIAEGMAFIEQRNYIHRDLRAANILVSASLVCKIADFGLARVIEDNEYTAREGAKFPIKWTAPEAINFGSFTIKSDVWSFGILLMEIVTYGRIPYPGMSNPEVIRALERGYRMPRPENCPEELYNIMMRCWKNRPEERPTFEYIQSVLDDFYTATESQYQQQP
FGFR1, sequence (P11362 whole entry, looked up): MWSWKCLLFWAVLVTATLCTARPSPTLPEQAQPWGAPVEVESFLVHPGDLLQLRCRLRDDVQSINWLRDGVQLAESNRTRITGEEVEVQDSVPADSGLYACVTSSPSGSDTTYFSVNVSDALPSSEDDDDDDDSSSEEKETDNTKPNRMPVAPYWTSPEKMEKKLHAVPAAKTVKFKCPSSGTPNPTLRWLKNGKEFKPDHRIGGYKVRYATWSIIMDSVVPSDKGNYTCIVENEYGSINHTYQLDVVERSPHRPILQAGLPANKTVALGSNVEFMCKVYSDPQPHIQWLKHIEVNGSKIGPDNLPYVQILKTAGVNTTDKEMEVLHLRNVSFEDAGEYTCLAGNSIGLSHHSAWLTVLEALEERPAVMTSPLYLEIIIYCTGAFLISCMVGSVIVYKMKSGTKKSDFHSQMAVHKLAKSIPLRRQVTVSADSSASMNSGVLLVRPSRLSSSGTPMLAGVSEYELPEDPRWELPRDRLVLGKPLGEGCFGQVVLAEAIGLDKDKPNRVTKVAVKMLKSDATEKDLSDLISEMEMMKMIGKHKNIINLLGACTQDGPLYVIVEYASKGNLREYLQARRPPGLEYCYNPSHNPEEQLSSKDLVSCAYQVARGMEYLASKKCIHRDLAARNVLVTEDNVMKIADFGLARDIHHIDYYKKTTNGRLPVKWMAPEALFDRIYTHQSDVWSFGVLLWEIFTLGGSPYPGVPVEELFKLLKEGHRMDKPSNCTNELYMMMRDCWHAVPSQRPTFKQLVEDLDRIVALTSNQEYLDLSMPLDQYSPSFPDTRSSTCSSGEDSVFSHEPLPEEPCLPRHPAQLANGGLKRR
Grb2 SH2, sequence (P62993 whole entry, looked up): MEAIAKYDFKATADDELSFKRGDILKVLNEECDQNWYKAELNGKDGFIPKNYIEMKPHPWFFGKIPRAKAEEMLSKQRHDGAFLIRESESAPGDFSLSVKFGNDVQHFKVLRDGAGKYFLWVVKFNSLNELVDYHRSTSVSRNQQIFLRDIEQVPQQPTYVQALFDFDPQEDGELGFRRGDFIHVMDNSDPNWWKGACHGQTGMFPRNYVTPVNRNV
Fes, sequence (P07332 whole entry, looked up): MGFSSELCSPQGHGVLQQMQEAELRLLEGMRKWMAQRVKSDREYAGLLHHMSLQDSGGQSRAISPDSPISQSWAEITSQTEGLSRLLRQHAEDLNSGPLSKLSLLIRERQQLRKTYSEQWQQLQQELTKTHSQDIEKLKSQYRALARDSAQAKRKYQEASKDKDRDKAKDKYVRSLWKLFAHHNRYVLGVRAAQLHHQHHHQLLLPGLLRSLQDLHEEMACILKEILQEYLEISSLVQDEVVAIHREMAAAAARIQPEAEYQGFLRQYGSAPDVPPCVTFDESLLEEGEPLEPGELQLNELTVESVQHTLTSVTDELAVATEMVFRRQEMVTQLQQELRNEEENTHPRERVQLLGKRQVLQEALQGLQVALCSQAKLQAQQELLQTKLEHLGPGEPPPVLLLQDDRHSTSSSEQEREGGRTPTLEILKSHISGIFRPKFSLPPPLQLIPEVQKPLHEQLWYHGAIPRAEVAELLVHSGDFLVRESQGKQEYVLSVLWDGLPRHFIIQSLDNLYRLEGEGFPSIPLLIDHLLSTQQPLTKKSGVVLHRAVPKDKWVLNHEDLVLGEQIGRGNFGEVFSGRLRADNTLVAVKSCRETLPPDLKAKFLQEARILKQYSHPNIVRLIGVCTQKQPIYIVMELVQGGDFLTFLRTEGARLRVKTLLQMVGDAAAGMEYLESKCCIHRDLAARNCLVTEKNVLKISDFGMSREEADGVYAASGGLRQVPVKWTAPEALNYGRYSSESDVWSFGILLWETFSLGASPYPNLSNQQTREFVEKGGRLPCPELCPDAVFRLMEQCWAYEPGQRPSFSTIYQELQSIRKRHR
Fyn, sequence (P06241 whole entry, looked up): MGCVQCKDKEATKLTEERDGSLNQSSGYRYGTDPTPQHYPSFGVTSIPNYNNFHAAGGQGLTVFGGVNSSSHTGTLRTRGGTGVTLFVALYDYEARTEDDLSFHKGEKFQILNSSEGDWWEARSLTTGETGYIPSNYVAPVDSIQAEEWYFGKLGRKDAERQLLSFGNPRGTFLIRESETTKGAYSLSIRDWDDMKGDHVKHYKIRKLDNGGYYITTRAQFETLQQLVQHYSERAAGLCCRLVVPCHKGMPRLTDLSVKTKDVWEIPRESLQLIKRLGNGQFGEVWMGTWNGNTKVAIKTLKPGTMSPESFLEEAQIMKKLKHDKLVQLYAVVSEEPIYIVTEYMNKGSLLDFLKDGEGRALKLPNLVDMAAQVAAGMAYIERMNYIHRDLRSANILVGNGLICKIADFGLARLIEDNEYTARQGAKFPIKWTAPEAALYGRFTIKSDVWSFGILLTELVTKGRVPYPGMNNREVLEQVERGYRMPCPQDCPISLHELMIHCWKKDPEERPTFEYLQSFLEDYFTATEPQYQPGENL

| Sequence | phosphorylation enrichment (Jak2) | phosphorylation enrichment (Fer (mouse)) | phosphorylation enrichment (EPHB2) | phosphorylation enrichment (FGFR1) | phosphorylation enrichment (EPHB1) | phosphorylation enrichment (Fes) | phosphorylation enrichment (c-Src) | phosphorylation enrichment (Fyn) | phosphorylation enrichment (FGFR3) | phosphorylation enrichment (c-Abl (mouse)) | phosphorylation enrichment (Hck) | phosphorylation enrichment (MERTK) | phosphorylation enrichment (AncSZ) | SH2 binding enrichment (SHP2-C SH2) | SH2 binding enrichment (Grb2 SH2) | SH2 binding enrichment (c-Src SH2) |
| --- | --- | --- | --- | --- | --- | --- | --- | --- | --- | --- | --- | --- | --- | --- | --- | --- |
| ALRHFYKLNII [ETV6_Y402_YF] | 0.875 | 0.502 | 0.535 | 0.462 | 0.522 | 1.03 | 0.439 | 0.471 | 0.628 | 0.84 | 0.482 | 0.44 | 0.828 | 2.11 | 1.25 | 1.27 |
| RVNSAYQDKVS [ACAN_Y100] | 1.36 | 0.437 | 0.648 | 0.513 | 0.642 | 0.796 | 0.484 | 0.517 | 0.567 | 1.06 | 0.396 | 0.498 | 0.849 | 0.679 | 0.784 | 0.455 |
| HSSPVYVGRVV [TGM2_Y219_R214H] | 1 | 1.63 | 1.47 | 1.37 | 2.08 | 1.97 | 1.57 | 3 | 1.24 | 1.17 | 6.86 | 1.5 | 1.85 | 1.22 | 0.806 | 0.539 |
| CFTRQYTLPPG [HSPB1_Y142_K141Q] | 0.901 | 0.496 | 0.57 | 0.553 | 0.577 | 0.943 | 0.361 | 0.388 | 0.656 | 0.722 | 0.497 | 0.399 | 0.976 | 0.794 | 0.773 | 0.523 |
| SVVVLYEPPEV [TP53_Y220_P219L] | 1.06 | 5.4 | 11 | 0.588 | 4.88 | 1.15 | 0.701 | 0.59 | 0.738 | 1.19 | 1.42 | 3.56 | 1.72 | 0.612 | 0.962 | 0.611 |
| NELTYYCYKKD [CD59_Y87_C89Y] | 2 | 0.692 | 0.826 | 2.1 | 0.804 | 1.51 | 4.48 | 3.84 | 1.98 | 5.45 | 4.17 | 1.77 | 1.81 | 0.505 | 0.728 | 0.482 |
| YRRITYHNWRH [PDE6B_Y556] | 0.585 | 0.452 | 0.362 | 0.386 | 0.376 | 0.637 | 0.606 | 0.525 | 0.425 | 0.53 | 0.477 | 0.562 | 0.642 | 0.553 | 1.15 | 0.453 |
| VVPGSYDRLRV [IFT172_Y260_L257P] | 0.462 | 0.332 | 1.13 | 0.394 | 0.353 | 0.603 | 0.399 | 0.359 | 0.439 | 0.406 | 0.486 | 0.469 | 0.496 | 0.912 | 0.772 | 0.818 |
| RLLVVYPWTQG [HBG2_Y36_R41G] | 0.987 | 0.289 | 0.378 | 0.603 | 0.542 | 0.932 | 0.305 | 0.499 | 0.58 | 0.593 | 0.416 | 0.27 | 0.894 | 1.82 | 2.61 | 1.66 |
| ELELLYLDRNS [NYX_Y284] | 0.761 | 0.408 | 0.519 | 0.493 | 0.518 | 0.904 | 0.515 | 0.494 | 0.634 | 0.573 | 0.551 | 0.347 | 0.934 | 0.7 | 1.03 | 0.59 |
| HVSISYDIPPT [GAB1_Y307] | 0.826 | 0.732 | 1.18 | 0.677 | 0.522 | 1.24 | 0.478 | 0.645 | 1.01 | 0.735 | 0.644 | 6.11 | 1.33 | 0.548 | 0.688 | 0.702 |
| PADSGYPAFLG [ATP6V1A_Y374_YF] | 1.1 | 0.759 | 0.6 | 0.981 | 1.51 | 1.88 | 0.772 | 1.04 | 1.36 | 1.12 | 0.959 | 0.87 | 1.72 | 0.502 | 0.765 | 0.423 |
| WDLPEYSYKDP [ITGA3_Y237_S235P] | 1.18 | 0.517 | 0.651 | 0.688 | 0.631 | 1.18 | 0.495 | 1.12 | 0.926 | 0.545 | 0.787 | 0.464 | 2.12 | 0.77 | 0.89 | 0.784 |
| QELRRYLKSGV [MICA_Y194] | 0.566 | 0.626 | 0.875 | 0.582 | 0.765 | 0.787 | 0.577 | 0.553 | 0.804 | 0.659 | 0.957 | 0.544 | 0.652 | 0.384 | 0.764 | 0.465 |
| EEHIPCTHMNG [INSR_Y1361_Y1361C] | 1.03 | 0.612 | 0.597 | 0.592 | 0.581 | 0.867 | 0.497 | 0.436 | 0.632 | 0.865 | 0.435 | 0.552 | 0.916 | 0.7 | 0.709 | 0.649 |
| MACDRYVAICS [OR8D4_Y123] | 0.755 | 0.475 | 0.592 | 0.623 | 0.508 | 0.841 | 0.586 | 0.529 | 0.503 | 0.55 | 0.45 | 0.576 | 0.709 | 3.31 | 0.743 | 7.31 |
| LEAFQYIGESQ [MSH2_Y856_E853A] | 1.46 | 0.505 | 0.585 | 0.614 | 0.711 | 1.58 | 0.659 | 0.625 | 0.938 | 0.906 | 0.413 | 0.479 | 1.21 | 0.682 | 0.979 | 0.506 |

| Sequence | phosphorylation enrichment (Jak2) | phosphorylation enrichment (Fer (mouse)) | phosphorylation enrichment (EPHB2) | phosphorylation enrichment (FGFR1) | phosphorylation enrichment (EPHB1) | phosphorylation enrichment (Fes) | phosphorylation enrichment (c-Src) | phosphorylation enrichment (Fyn) | phosphorylation enrichment (FGFR3) | phosphorylation enrichment (c-Abl (mouse)) | phosphorylation enrichment (Hck) | phosphorylation enrichment (MERTK) | phosphorylation enrichment (AncSZ) | SH2 binding enrichment (SHP2-C SH2) | SH2 binding enrichment (Grb2 SH2) | SH2 binding enrichment (c-Src SH2) |
| --- | --- | --- | --- | --- | --- | --- | --- | --- | --- | --- | --- | --- | --- | --- | --- | --- |
| SRLDSYVRSLP [TRAPPC1_Y133] | 0.556 | 0.338 | 0.395 | 0.427 | 0.606 | 0.666 | 0.448 | 0.373 | 0.525 | 0.473 | 0.443 | 0.447 | 0.579 | 0.531 | 0.725 | 0.546 |
| NYYDLYGGEKF [PTPN11_Y66_D61N] | 1.97 | 2.32 | 12.1 | 13.4 | 10.6 | 1.03 | 4.47 | 5.82 | 11.7 | 0.725 | 5.52 | 7.49 | 1.48 | 0.702 | 1.16 | 1.84 |
| AESPEYVHMFT [FAM111A_Y511_YF] | 1.11 | 0.542 | 0.598 | 1.69 | 0.579 | 1.12 | 0.443 | 0.502 | 1.58 | 0.703 | 0.629 | 0.407 | 1.32 | 0.564 | 0.878 | 0.528 |
| QPDLLYDHIQP [TRRAP_Y862_F860L] | 1.27 | 25 | 18.1 | 1.02 | 15.2 | 2.01 | 10.3 | 13.5 | 1.5 | 3.03 | 15.1 | 14.4 | 3.04 | 0.517 | 0.733 | 0.832 |
| HFEFKYVINAI [MAOA_Y268_C266F_YF] | 1.81 | 0.829 | 0.89 | 0.391 | 0.686 | 2.11 | 0.576 | 0.441 | 0.854 | 1.26 | 0.668 | 0.678 | 1.66 | 0.772 | 0.814 | 0.561 |
| ILNANCMAKRL [GLDC_Y839_Y839C] | 0.611 | 0.342 | 0.439 | 0.477 | 0.306 | 0.628 | 0.378 | 0.351 | 0.403 | 0.498 | 0.391 | 0.42 | 0.612 | 0.727 | 0.802 | 0.534 |
| GGMTEYKLVVV [KRAS_Y4] | 0.685 | 0.423 | 0.569 | 1.01 | 0.514 | 0.929 | 0.369 | 0.488 | 0.776 | 0.539 | 0.446 | 0.368 | 0.852 | 2.14 | 0.985 | 0.649 |
| SMEMKYLEEKN [ZAP70_Y451_G448E] | 1.22 | 0.572 | 0.659 | 0.535 | 0.825 | 1.47 | 0.609 | 0.706 | 1.07 | 1.17 | 0.548 | 0.48 | 1.15 | 0.786 | 0.906 | 0.549 |
| LANNEYFFRVC | 1.38 | 0.505 | 0.917 | 1.31 | 0.733 | 1.19 | 0.55 | 0.74 | 1.47 | 0.698 | 0.53 | 0.517 | 1.23 | 0.884 | 1.05 | 0.634 |
| FSDQVYRQHRK [TH_Y230_R233H] | 0.529 | 0.355 | 0.452 | 0.388 | 0.335 | 0.644 | 0.452 | 0.378 | 0.441 | 0.819 | 0.447 | 0.357 | 0.555 | 0.539 | 1.03 | 0.624 |
| AEVDTYCRHNY [HLA-DRB1_Y107_A103E] | 0.682 | 0.442 | 0.559 | 0.461 | 0.428 | 0.98 | 0.537 | 0.394 | 0.559 | 0.554 | 0.505 | 0.391 | 0.771 | 0.838 | 0.939 | 0.699 |
| HDRGNYVQLNM [RECQL4_Y353_R355Q] | 0.55 | 0.674 | 3.46 | 1.99 | 8.72 | 1.1 | 0.442 | 0.493 | 1.35 | 0.552 | 0.508 | 0.686 | 0.744 | 1.18 | 0.986 | 1.95 |
| EFGFRYELVQY [UGGT2_Y1289_Y1285F] | 1.05 | 0.611 | 0.507 | 0.512 | 0.573 | 1.14 | 0.393 | 0.329 | 0.617 | 0.627 | 0.429 | 0.338 | 1.11 | 0.501 | 0.566 | 1.39 |
| WQQQSYLASGI [CTNNB1_Y30_D32A] | 0.638 | 0.442 | 0.51 | 0.463 | 0.532 | 0.754 | 0.5 | 0.487 | 0.533 | 0.686 | 0.447 | 0.411 | 0.642 | 0.588 | 0.822 | 0.52 |
| RLQAAYNLVKR [PFKM_Y103_R100Q] | 0.866 | 0.494 | 0.388 | 0.525 | 0.59 | 1.19 | 0.526 | 0.731 | 0.489 | 0.853 | 0.633 | 0.541 | 0.787 | 2.08 | 1.86 | 1.51 |
| LTDLRYKVSGP | 0.687 | 0.588 | 0.957 | 0.43 | 0.518 | 1.11 | 0.255 | 0.537 | 1.13 | 0.684 | 0.594 | 0.464 | 0.644 | 0.82 | 1.04 | 0.407 |
